Data reported in the RNAGym collection of RNA variant scans (doi:10.7554/elife.80360).

B1: HDV Ribozyme (parent)
chain: GGCCGGCAUGGUCCCAGCCUCCUCGCUGGCGCCGGCUGGGCAACAUUCCGAGGGGACCGUCCCCUCGGUAAUGGCGAAUGGGACCCA

Variants of: B1
Assay: self-cleavage, relative activity (ratio to wild type); higher = more cleavage; co-transcriptional
C36G A51G showed a self-cleavage of 0.151.
U37G U60C showed a self-cleavage of 0.256.
Work on C36G G52A yielded a self-cleavage of 0.271.
G35U G68U gave a self-cleavage of 0.309.
U37C G82A gave a self-cleavage of 0.173.
U37C G82C showed a self-cleavage of 0.268.
Work on U37C G82U yielded a self-cleavage of 0.399.
For U37C A83G, the self-cleavage was 0.76.
For G38C C41A, the self-cleavage was 0.612.
G38C C41U gave a self-cleavage of 1.08.
U37G U65A gave a self-cleavage of 0.101.
Work on U37A G80C yielded a self-cleavage of 0.163.
In the case of U37A C61G, the self-cleavage is reported as 0.151.
For U37A C61U, the self-cleavage was 0.277.
Work on U37A A43C yielded a self-cleavage of 0.0723.
U37A A43U showed a self-cleavage of 0.0437.
U37A A43G gave a self-cleavage of 0.0554.
In the case of C36U C49G, the self-cleavage is reported as 0.607.
Variant C36U C49U has a self-cleavage of 0.743.
For U37C C64A, the self-cleavage was 0.831.
In the case of C36U G59C, the self-cleavage is reported as 0.923.
Work on U37C G55A yielded a self-cleavage of 1.
For C36A C49G, the self-cleavage was 0.0297.
In the case of G38C C44U, the self-cleavage is reported as 0.104.
Work on U37A C86G yielded a self-cleavage of 0.0875.
Variant U37C C57G has a self-cleavage of 1.1.
G35C U46G showed a self-cleavage of 0.0831.
For G35U A51G, the self-cleavage was 0.356.
For C36G C41A, the self-cleavage was 0.248.
G35C G81U gave a self-cleavage of 0.0739.
For G35U C49G, the self-cleavage was 0.325.
Work on G35C G82A yielded a self-cleavage of 0.147.
In the case of U37C C66G, the self-cleavage is reported as 0.932.
U37C C86G gave a self-cleavage of 0.956.
Work on U37C C86U yielded a self-cleavage of 1.06.
Variant C36U C66G has a self-cleavage of 0.767.
C36G U60G showed a self-cleavage of 0.0723.
Variant C36G C57U has a self-cleavage of 0.128.
G38C C62U showed a self-cleavage of 0.197.
C36U G73A showed a self-cleavage of 0.428.
C36U G73U showed a self-cleavage of 0.0692.
G38A A83G gave a self-cleavage of 0.142.
G38A A83C gave a self-cleavage of 0.151.
For C36G G74U, the self-cleavage was 0.111.
For C36G G74C, the self-cleavage was 0.0723.
Work on C36U G53C yielded a self-cleavage of 0.815.
Work on C36U G50C yielded a self-cleavage of 0.612.
Variant C36U G50A has a self-cleavage of 0.673.
For U37G G53C, the self-cleavage was 0.145.
Variant U37A G50A has a self-cleavage of 0.0361.
Variant G38C A43C has a self-cleavage of 0.26.
For U37G G74A, the self-cleavage was 0.229.
For U37C G80A, the self-cleavage was 0.267.
In the case of U37C G80C, the self-cleavage is reported as 0.288.
In the case of C36U G38A, the self-cleavage is reported as 0.191.
With G35C U37C the self-cleavage was 0.18.
With G38A C48G the self-cleavage was 0.148.
For U37G C57G, the self-cleavage was 0.145.
For C36G G59C, the self-cleavage was 0.0755.
Variant U37C A87U has a self-cleavage of 1.14.
Work on G35U A78U yielded a self-cleavage of 0.0545.
G35U A78C gave a self-cleavage of 0.133.
Variant C36U U47A has a self-cleavage of 0.481.
U37G C62G gave a self-cleavage of 0.0791.
In the case of C36U A70U, the self-cleavage is reported as 0.702.
U37A A51U gave a self-cleavage of 0.
Work on G38A C66A yielded a self-cleavage of 0.0992.
With U37A U79A the self-cleavage was 0.246.
For C36U G39C, the self-cleavage was 0.119.
For C36U C48A, the self-cleavage was 0.623.
With U37G C48G the self-cleavage was 0.111.
Work on G35U U65C yielded a self-cleavage of 0.434.
C36A U60G showed a self-cleavage of 0.178.
Work on G38C C64U yielded a self-cleavage of 0.369.
U37C C41G gave a self-cleavage of 1.11.
U37C U69C showed a self-cleavage of 0.89.
For G35U G74C, the self-cleavage was 0.272.
Variant U37C has a self-cleavage of 1.03.
U37G showed a self-cleavage of 0.131.
With U37A the self-cleavage was 0.216.
Work on C36U C64G yielded a self-cleavage of 0.606.
For G38C A71U, the self-cleavage was 0.0449.
G38C A71G showed a self-cleavage of 0.166.
For G35C C84G, the self-cleavage was 0.116.
For G35C C84A, the self-cleavage was 0.271.
With U37C U65G the self-cleavage was 0.906.
C36A C48A gave a self-cleavage of 0.259.
G35U A83U showed a self-cleavage of 0.145.
With U37A C44A the self-cleavage was 0.364.
U37A C44U showed a self-cleavage of 0.0386.
In the case of U37G C64U, the self-cleavage is reported as 0.
G35U G81C showed a self-cleavage of 0.133.
G35U G81A showed a self-cleavage of 0.108.
With G35U G81U the self-cleavage was 0.156.
For G38A U65G, the self-cleavage was 0.181.
For G38A U65C, the self-cleavage was 0.117.
G35U G39A showed a self-cleavage of 0.0906.
With G35C G53A the self-cleavage was 0.172.
In the case of G35C G53C, the self-cleavage is reported as 0.208.
For C36A G80C, the self-cleavage was 0.178.
In the case of C36U A56U, the self-cleavage is reported as 0.845.
Work on U37A C41G yielded a self-cleavage of 0.0723.
G35C G68A showed a self-cleavage of 0.17.
C36G C61G showed a self-cleavage of 0.0386.
In the case of C36G C61U, the self-cleavage is reported as 0.121.
Work on U37G A56G yielded a self-cleavage of 0.0665.
Variant G35U A43C has a self-cleavage of 0.208.
Variant G38C C49G has a self-cleavage of 0.156.
G35U G59U gave a self-cleavage of 0.53.
With U37A C84U the self-cleavage was 0.116.
For C36U C75A, the self-cleavage was 0.203.
Work on G35C G80C yielded a self-cleavage of 0.0992.
With G35C G80A the self-cleavage was 0.212.
For G35C G80U, the self-cleavage was 0.043.
U37G C63A showed a self-cleavage of 0.123.
In the case of U37C G38C, the self-cleavage is reported as 0.237.
Variant C36G U65G has a self-cleavage of 0.244.
For G38A G53A, the self-cleavage was 0.113.
U37A A83U gave a self-cleavage of 0.104.
Variant U37A A83G has a self-cleavage of 0.115.
U37A A83C gave a self-cleavage of 0.0378.
Work on C36A A42C yielded a self-cleavage of 0.0583.
C36A A42G gave a self-cleavage of 0.113.
In the case of C36A G39A, the self-cleavage is reported as 0.113.
U37G G59A showed a self-cleavage of 0.
U37G G59U showed a self-cleavage of 0.256.
Work on G35C C85G yielded a self-cleavage of 0.0923.
For U37C G68A, the self-cleavage was 0.864.
G35C G39U showed a self-cleavage of 0.0302.
G38A C84G gave a self-cleavage of 0.257.
Variant G38A C84U has a self-cleavage of 0.109.
Variant C36U U46G has a self-cleavage of 0.504.
C36G U37G showed a self-cleavage of 0.213.
G38A G59A showed a self-cleavage of 0.0801.
For C36A A70U, the self-cleavage was 0.163.
With C36A A70G the self-cleavage was 0.119.
In the case of G38A A71U, the self-cleavage is reported as 0.102.
C36A C84U showed a self-cleavage of 0.163.
With U37A U47C the self-cleavage was 0.289.
U37G U47G showed a self-cleavage of 0.
Work on U37G C66U yielded a self-cleavage of 0.196.
With C36A G76C the self-cleavage was 0.241.
G35U G80U showed a self-cleavage of 0.223.
G38A G67U gave a self-cleavage of 0.135.
G38A G67A gave a self-cleavage of 0.0665.
With G38A C85U the self-cleavage was 0.128.
With G38A C85A the self-cleavage was 0.104.
With U37G C61A the self-cleavage was 0.0875.
U37G C61G gave a self-cleavage of 0.
In the case of G38A U46C, the self-cleavage is reported as 0.138.
U37G G38U gave a self-cleavage of 0.155.
U37G G38A showed a self-cleavage of 0.111.
Work on G35C G38U yielded a self-cleavage of 0.0875.
In the case of C36U G80A, the self-cleavage is reported as 0.0923.
C36U G80C gave a self-cleavage of 0.12.
G35C G52A gave a self-cleavage of 0.233.
G35C G52C gave a self-cleavage of 0.128.
G35C G52U showed a self-cleavage of 0.318.
In the case of C36A U65G, the self-cleavage is reported as 0.394.
Work on G38A U79C yielded a self-cleavage of 0.161.
Variant C36U G40C has a self-cleavage of 0.0959.
U37A A70G showed a self-cleavage of 0.214.
C36G C85G gave a self-cleavage of 0.161.
In the case of C36G C85A, the self-cleavage is reported as 0.251.
With G38C A70G the self-cleavage was 0.0978.
In the case of C36U U69C, the self-cleavage is reported as 0.801.
G35U G76C showed a self-cleavage of 0.62.
